The values below come from paper PMC4873981.

A value given as a limit tells only on which side of the number the result lay.

For the assay, the target named is Myc-MRTF, full-length Y866G mutant (UniProt P59759). As to the kind of experiment: co-IP; LLC-PK1 cells co-transfected with Myc-MRTF constructs and HA-TAZ constructs, IP with anti-Myc, blot for HA; untreated or LCM 30 min.
Sequence of UniProt P59759 (P59759 whole entry Y866G): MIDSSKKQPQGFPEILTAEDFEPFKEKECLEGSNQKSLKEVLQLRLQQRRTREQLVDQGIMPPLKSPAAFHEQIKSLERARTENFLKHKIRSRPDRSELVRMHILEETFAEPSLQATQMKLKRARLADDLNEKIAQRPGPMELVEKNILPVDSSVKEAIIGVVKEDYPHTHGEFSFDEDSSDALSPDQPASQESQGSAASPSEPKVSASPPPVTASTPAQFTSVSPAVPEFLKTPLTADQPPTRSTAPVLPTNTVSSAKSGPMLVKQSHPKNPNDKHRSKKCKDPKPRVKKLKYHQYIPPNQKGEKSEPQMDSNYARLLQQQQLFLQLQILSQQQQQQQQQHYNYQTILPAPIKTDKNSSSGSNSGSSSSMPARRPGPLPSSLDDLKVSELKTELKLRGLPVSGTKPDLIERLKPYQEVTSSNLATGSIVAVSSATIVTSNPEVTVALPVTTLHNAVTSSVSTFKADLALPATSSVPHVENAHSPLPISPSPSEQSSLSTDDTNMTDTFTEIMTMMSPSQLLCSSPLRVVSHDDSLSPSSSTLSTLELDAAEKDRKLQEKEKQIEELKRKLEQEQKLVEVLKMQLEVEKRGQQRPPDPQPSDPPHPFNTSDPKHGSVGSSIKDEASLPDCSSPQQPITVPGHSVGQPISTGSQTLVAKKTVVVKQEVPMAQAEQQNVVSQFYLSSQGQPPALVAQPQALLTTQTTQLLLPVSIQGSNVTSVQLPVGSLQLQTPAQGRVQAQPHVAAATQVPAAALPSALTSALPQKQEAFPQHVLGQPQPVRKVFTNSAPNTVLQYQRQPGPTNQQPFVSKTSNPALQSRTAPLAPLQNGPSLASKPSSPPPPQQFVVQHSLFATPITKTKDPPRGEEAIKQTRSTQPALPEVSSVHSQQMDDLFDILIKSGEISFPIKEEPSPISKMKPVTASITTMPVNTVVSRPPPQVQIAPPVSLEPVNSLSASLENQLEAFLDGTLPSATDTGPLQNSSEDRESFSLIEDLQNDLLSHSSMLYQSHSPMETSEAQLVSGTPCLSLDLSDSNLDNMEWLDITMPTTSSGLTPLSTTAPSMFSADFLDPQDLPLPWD

“HA-TAZ, wild type (from UniProt Q9GZV5 1-400) (natural protein)” gave a reduction in association against WT MRTF of over 50%.
